Article PMC6050537, “Inhibition of low-density lipoprotein receptor degradation with a cyclic peptide that disrupts the homodimerization of IDOL E3 ubiquitin ligase” (Chemical Science, 2018)
Non-standard residues stand in square brackets, D forms with d. Phe(4-NO2) = N[C@@H](Cc1ccc([N+](=O)[O-])cc1)C(=O)O; Phe(4-CN) = N#Cc1ccc(C[C@H](N)C(=O)O)cc1; Phe(4-Cl) = N[C@@H](Cc1ccc(Cl)cc1)C(=O)O; Phe(4-F) = N[C@@H](Cc1ccc(F)cc1)C(=O)O; Phe(4-Me) = Cc1ccc(C[C@H](N)C(=O)O)cc1; hPhe = N[C@@H](CCc1ccccc1)C(=O)O

These binders were tested against Full length IDOL (1–445) (UniProt Q8WY64) (assay: SPR; Biacore S200; 6× His-tagged full-length IDOL immobilized on an NTA chip (~6000 RU), peptides as analytes; 10 mM HEPES, 300 mM NaCl, 1 mM TCEP, 0.05% Tween 20, 4% DMSO, pH 8.0; saturation at the highest concentrations not observed). Conditions: not given.

Going from CFFLYT (cyclic backbone (cyclo-)) [cyclo-CFFLYT] to CTIFLL (cyclic backbone (cyclo-)) [cyclo-CTIFLL], the Kd falls from 38.5 µM to 20.9 µM (1.8-fold).

Target: T1, Full length IDOL (1–445), Q8WY64
T1 chain: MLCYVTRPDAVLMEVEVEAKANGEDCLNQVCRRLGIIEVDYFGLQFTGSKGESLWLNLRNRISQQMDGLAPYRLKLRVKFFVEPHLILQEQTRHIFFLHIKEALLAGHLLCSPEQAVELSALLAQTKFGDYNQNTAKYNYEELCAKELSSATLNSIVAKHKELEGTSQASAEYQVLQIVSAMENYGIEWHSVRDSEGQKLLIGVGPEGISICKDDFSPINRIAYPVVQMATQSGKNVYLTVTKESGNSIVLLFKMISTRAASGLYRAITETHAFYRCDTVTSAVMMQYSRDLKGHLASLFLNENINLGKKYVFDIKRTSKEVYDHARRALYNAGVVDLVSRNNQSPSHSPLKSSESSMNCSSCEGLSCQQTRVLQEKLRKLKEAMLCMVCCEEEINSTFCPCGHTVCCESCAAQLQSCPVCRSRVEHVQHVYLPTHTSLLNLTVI
Experiment: MST
Conditions: modification not given; NT-647-NHS dye (only the labelled copy in the MST assays)

Going from cyclo(CF[Phe(4-CN)]LYT) (not fully specified) [RINGPep1 derivative with 4-cyano-phenylalanine at position 3] to cyclo(CF[Phe(4-Me)]LYT) (not fully specified) [RINGPep1 derivative with 4-methy-phenylalanine at position 3], the Kd falls from 36.2 µM to 23.1 µM (1.6-fold).

Going from cyclo(CF[hPhe]LYT) (not fully specified) [RINGPep1 derivative with homo-phenylalanine at position 3] to cyclo(CF[Phe(4-NO2)]LYT) (not fully specified) [RINGPep1 derivative with 4-nitro-phenylalanine at position 3], the Kd rises from 23.6 µM to 35.7 µM (1.5-fold). The first binds more tightly here.

Going from cyclo(CF[Phe(4-Cl)]LYT) (not fully specified) [RINGPep1 derivative with 4-chloro-phenylalanine at position 3] to cyclo(CF[Phe(4-F)]LYT) (not fully specified) [RINGPep1 derivative with 4-fluoro-phenylalanine at position 3], the Kd rises from 12 µM to 35.2 µM (2.9-fold).

What follows are binders tested against Full length IDOL (1–445) (UniProt Q8WY64) (assay: MST; Monolith NT.115; 6× His IDOL labelled with NT-647-NHS dye at 50 nM, peptides titrated; 10 mM HEPES, 300 mM NaCl, 1 mM TCEP, 0.05% TWEEN-20, pH 8.0, 5% DMSO). Conditions: not given.

Binder CFFLYT (cyclic backbone (cyclo-)) [cyclo-CFFLYT] has a Kd of 38.5 µM.
